Measured values reported in US20010046966.

Assays:
[1] = biological target: GATA-3 (UniProt P23772); test: cell_activity; settings: NIH3T3 luciferase
[2] = biological target: GATA-2 (UniProt O09100); test: cell_activity; settings: NIH3T3 luciferase
Sequence of GATA-2 (O09100 whole entry): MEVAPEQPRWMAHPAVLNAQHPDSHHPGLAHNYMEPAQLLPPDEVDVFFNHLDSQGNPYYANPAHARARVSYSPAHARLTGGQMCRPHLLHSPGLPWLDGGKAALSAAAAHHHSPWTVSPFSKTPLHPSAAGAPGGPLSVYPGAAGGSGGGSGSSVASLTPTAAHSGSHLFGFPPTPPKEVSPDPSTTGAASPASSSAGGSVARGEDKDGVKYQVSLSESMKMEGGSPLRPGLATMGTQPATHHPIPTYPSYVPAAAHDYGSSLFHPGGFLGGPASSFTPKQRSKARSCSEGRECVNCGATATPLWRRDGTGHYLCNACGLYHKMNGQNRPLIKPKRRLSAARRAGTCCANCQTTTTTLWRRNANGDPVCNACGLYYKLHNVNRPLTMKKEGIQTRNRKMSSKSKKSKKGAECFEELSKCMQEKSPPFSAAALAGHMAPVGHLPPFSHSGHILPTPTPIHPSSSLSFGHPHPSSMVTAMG

Sequence of GATA-3 (P23772 whole entry): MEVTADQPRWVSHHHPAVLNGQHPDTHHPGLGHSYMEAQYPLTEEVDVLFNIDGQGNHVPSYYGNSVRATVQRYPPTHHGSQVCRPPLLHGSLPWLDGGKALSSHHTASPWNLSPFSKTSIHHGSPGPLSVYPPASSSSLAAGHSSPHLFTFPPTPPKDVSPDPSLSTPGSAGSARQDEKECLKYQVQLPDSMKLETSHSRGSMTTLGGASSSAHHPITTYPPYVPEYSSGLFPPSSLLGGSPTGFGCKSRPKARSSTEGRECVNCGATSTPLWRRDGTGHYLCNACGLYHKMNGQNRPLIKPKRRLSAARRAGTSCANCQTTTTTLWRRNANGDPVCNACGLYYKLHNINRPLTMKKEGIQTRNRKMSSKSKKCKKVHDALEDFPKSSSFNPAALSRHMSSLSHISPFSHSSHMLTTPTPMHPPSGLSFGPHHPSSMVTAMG

PPAR-gamma2 promoter -603 to +62 luciferase reporter
activity (fold suppression) [1]: 5 | activity (fold suppression) [2]: 5
